Values of other authors, collected in patent publication EP0632082B1, “Preparation of activated carbamates of poly(alkylene glycol) and their use” ("HEYLECINA", Société Anonyme, priority 1993, dated 1995).

Details: modification with SC-mPEG

## papaya proteinase III: papaya proteinase III modified with SC-mPEG
  increase of specific activity: 250%
